{"source": "paper doi:10.1101/2025.02.04.636384", "about": "(bioRxiv, 2025)", "proteins": {"B1": {"name": "Aeropyrum pernix Kv (KvAP) channel, wild type (natural protein, UniProt Q9YDF8 1-295, looked up)", "chain": "MSVERWVFPGCSVMARFRRGLSDLGGRVRNIGDVMEHPLVELGVSYAALLSVIVVVVEYTMQLSGEYLVRLYLVDLILVIILWADYAYRAYKSGDPAGYVKKTLYEIPALVPAGLLALIEGHLAGLGLFRLVRLLRFLRILLIISRGSKFLSAIADAADKIRFYHLFGAVMLTVLYGAFAIYIVEYPDPNSSIKSVFDALWWAVVTATTVGYGDVVPATPIGKVIGIAVMLTGISALTLLIGTVSNMFQKILVGEPEPSCSPAKLAEMVSSMSEEEFEEFVRTLKNLRRLENSMK"}}, "biological_target": "the molecule itself", "assay": "SEC", "data": [{"protein": "B1", "values": [{"measurement": "stoichiometry N", "value": 4}]}]}
